For one series, the system named is WT mice. Nature of the series: P1 treatment of WT littermates in the efficacy study. It is filed as in vivo, mouse. From the text: FIG. 31A-31F: For each of FIG. 31A-31F, data is shown reflecting the results of 3 separate studies (i.e., “Batch 1+2+3”) conducted under identical conditions; “veh” refers to the vehicle saline control. For each of FIG. 31A-31C at week 6, WT: n=15; WT+P1: n=15; R62 veh: n=22; R62+HV3-TAT: n=32; and R62+P1: n=16. For each of FIG. 31D-31F at week 6, WT: n=15; WT+P1: n=15; R62 veh: n=17; R62+HV3-TAT: n=30; and R62+P1: n=13. FIG. 31A depicts the average percent of body weight gain for mice subjected to each treatment. From top to bottom, the week 13 data points correspond to: WT+P1 (˜43%); WT (˜39%); R62+P1 (˜1%); R62+HV3-TAT (˜ 4%); and R62 (˜-9%). […]
In vivo Efficacy Methods—Behavioral Analysis: All experiments in animals were conducted in accordance with protocols approved by the Institutional Animal Care and Use Committee of Northwestern University and were performed based on the National Institutes of Health Guide for the Care and Use of Laboratory Animals. […] Accordingly, hindlimb clasping was assessed with the tail suspension test weekly from the ages 7 to 13 weeks in R6/2 mice and WT littermates. Mice were suspended by the tail for 60 sec and the latency for the hindlimbs or all four paws to clasp was recorded using the following score system: clasping over 10 sec, score 3; 5-10 sec, score 2; 0-5 sec, score 1; 0 sec, score 0. […]

We go through one substance from patent publication US20240110004A1 (Northwestern University, priority 2022, published 2024).

Where no end group is shown, it is not given here.

From the text for C3a: Immunocompatibility Methods: The interaction of a compound with blood will affect immune response, biodistribution, and clearance. The complement system is a key player in the innate immune response, and thus assaying the interaction between the complement system and PLPs serves as a litmus test to assess inherent inflammatory activity. Complement component C3a is implicated in all three of the complement activation pathways (classic, alternative, and lectin), thus a significant increase in C3a would warrant further investigation into specific activation of the innate and adaptive immune systems. […] In this assay, mouse weight was estimated as 35 g with an average blood volume of 2 mL for dosing preparation. Tested compounds were incubated at a ratio of 1:250 and 1:500 of compound to human serum for 4 hours prior to dilution and start of the assay. Using the C3a ELISA assay, and following manufacturer's protocol, samples were diluted with sample diluent and C3a control reconstituted with water. […] Serum samples and controls were incubated in C3a antibody coated wells for 2 hours with gentle shaking, before they were gently washed 3× with washing buffer, and primary antibody biotin solution administered to wells. […] After a final wash, developing substrate was added for 30 minutes before imaging on plate reader at 450 nM.

For “P1: PLP homopolymer having peptide side chains of SEQ ID: 1 (HVLVMSATRR), made by ROMP of norbornene peptide monomer M1 (also: side chains of polynorbornene homopolymer (PLP, ROMP of norbornene peptide monomer))”, the survival rate in the series with WT mice (WT mice) came to 100%. Also, the “effects on motor ability, body weight, or neuropathology” value in the series with WT mice (mouse, in vivo) is “no significant effects”. The “C3a complement activation compared to the vehicle” value with C3a is “did not show a statistically significant difference”.
